Article PMC5842622, “The Entamoeba histolytica TBP and TRF1 transcription factors are GAAC-box binding proteins, which display differential gene expression under different stress stimuli and during the interaction with ma”

B1: GAAC-like box (dsDNA)
DNA 1: AGGCGAACTACAAAAGAT
DNA 2: ATCTTTTGTAGTTCGCCT
B2: TAcTcAAA (7) (dsDNA)
DNA 1: AATTCTCTACTCAAAGAGAATT
DNA 2: AATTCTCTTTGAGTAGAGAATT
B3: gAgTTAAA (6) (dsDNA)
DNA 1: AATTCTCGAGTTAAAGAGAATT
DNA 2: AATTCTCTTTAACTCGAGAATT
B4: TATgTAAA (5) (dsDNA)
DNA 1: AATTCTCTATGTAAAGAGAATT
DNA 2: AATTCTCTTTACATAGAGAATT
B5: GAAC-box (wild type) (dsDNA)
DNA 1: AAGACAATGAACTAGAATG
DNA 2: CATTCTAGTTCATTGTCTT
B6: TAgTgAAA (2) (dsDNA)
DNA 1: AATTCTCTAGTGAAAGAGAATT
DNA 2: AATTCTCTTTCACTAGAGAATT
B7: cAcTTAAA (9) (dsDNA)
DNA 1: AATTCTCCACTTAAAGAGAATT
DNA 2: AATTCTCTTTAAGTGGAGAATT
B8: TATTggAA (3) (dsDNA)
DNA 1: AATTCTCTATTGGAAGAGAATT
DNA 2: AATTCTCTTCCAATAGAGAATT
B9: TATTTAAA (1) (dsDNA)
DNA 1: AATTCTCTATTTAAAGAGAATT
DNA 2: AATTCTCTTTAAATAGAGAATT
B10: TATTTttt (10) (dsDNA)
DNA 1: AATTCTCTATTTTTTGAGAATT
DNA 2: AATTCTCAAAAAATAGAGAATT
B11: TATTaAAA (4) (dsDNA)
DNA 1: AATTCTCTATTAAAAGAGAATT
DNA 2: AATTCTCTTTTAATAGAGAATT
B12: cAcTcAAA (8) (dsDNA)
DNA 1: AATTCTCCACTCAAAGAGAATT
DNA 2: AATTCTCTTTGAGTGGAGAATT

Biological target: T1, rEhTRF1 (TBP-related factor 1) (Entamoeba histolytica, UniProt A7UFC2 1-216)
T1 sequence: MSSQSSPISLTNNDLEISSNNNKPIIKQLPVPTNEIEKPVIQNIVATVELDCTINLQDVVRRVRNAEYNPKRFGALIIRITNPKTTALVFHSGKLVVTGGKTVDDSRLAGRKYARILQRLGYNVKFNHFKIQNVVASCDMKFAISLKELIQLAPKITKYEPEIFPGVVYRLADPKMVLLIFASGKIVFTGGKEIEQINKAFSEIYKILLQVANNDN
Assay: EMSA; specifically competed; EMSA: 12 mM Hepes pH 7.9, 60 mM KCl, 1 mM each DTT, EDTA, spermidine and MgCl2, 10% glycerol, poly(dG-dC) 1 ug/ul, 10 min at 4 C; probe 557 pM (TATA), 64 pM (GAAC) or 82 pM (GAAC-like)
Conditions: protein: recombinant; tags: His tag; label: 5'-32P; blunt

Does B1 bind?
Result: binds

Biological target: T2, rEhTBP (TATA-box binding protein) (Entamoeba histolytica, UniProt P52653 1-234)
T2 sequence: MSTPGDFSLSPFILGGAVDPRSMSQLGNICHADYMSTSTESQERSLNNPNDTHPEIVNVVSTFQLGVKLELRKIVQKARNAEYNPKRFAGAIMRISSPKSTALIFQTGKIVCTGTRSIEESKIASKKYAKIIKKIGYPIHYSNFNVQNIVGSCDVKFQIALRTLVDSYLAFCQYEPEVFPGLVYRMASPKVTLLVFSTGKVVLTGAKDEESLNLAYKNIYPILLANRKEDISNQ
Assay: EMSA; 4 C, 1 mM MgCl2; EMSA: 12 mM Hepes pH 7.9, 60 mM KCl, 1 mM each DTT, EDTA, spermidine and MgCl2, 10% glycerol, poly(dG-dC) 1 ug/ul, 10 min at 4 C; probe 557 pM (TATA), 64 pM (GAAC) or 82 pM (GAAC-like)
Conditions: protein: recombinant; tags: His tag; label: 5'-32P; blunt

With B2 as the binder, how does the Kd read?
The Kd was 0.00276 nM.

For B3, which Kd is on record?
The Kd was 0.00473 nM.

For B4, which Kd is on record?
The Kd was 0.00169 nM.

For B5, which Kd is on record?
Its Kd is 0.019 nM.

Which Kd does the source give for B6 here?
Its Kd is 0.0398 nM.

Does B7 bind?
Result: no binding

For B8, which Kd is on record?
Its Kd is 0.0357 nM.

For B9, which Kd is on record?
Its Kd is 0.0207 nM.

With B10 as the binder, how does the Kd read?
Its Kd is 0.0034 nM.

How did the Kd turn out when B11 was run?
The Kd was 0.00485 nM.

How did the Kd turn out when B12 was run?
The Kd was 0.038 nM.

Biological target: T1, rEhTRF1 (TBP-related factor 1)
Assay: as above
Conditions: protein: recombinant; tags: His tag; label: 5'-32P; blunt

With B2 as the binder, how does the Kd read?
Its Kd is 0.0298 nM.

For B3, which Kd is on record?
The Kd was 0.00685 nM.

With B4 as the binder, how does the Kd read?
Its Kd is 0.00674 nM.

How did the Kd turn out when B5 was run?
The Kd was 0.0794 nM.

For B6, which Kd is on record?
Its Kd is 0.013 nM.

B7 was tested. Which Kd did it give?
The Kd was 0.00972 nM.

For B8, which Kd is on record?
The Kd was 0.0135 nM.

For B9, which Kd is on record?
The Kd was 0.0529 nM.

For B10, which Kd is on record?
The Kd was 0.0254 nM.

Which Kd does the source give for B11 here?
The Kd was 0.00398 nM.

B12 was tested. Which Kd did it give?
Its Kd is 0.0308 nM.

Biological target: T2, rEhTBP (TATA-box binding protein)
Assay: EMSA; complex barely competed by specific competitor; EMSA: 12 mM Hepes pH 7.9, 60 mM KCl, 1 mM each DTT, EDTA, spermidine and MgCl2, 10% glycerol, poly(dG-dC) 1 ug/ul, 10 min at 4 C; probe 557 pM (TATA), 64 pM (GAAC) or 82 pM (GAAC-like)
Conditions: protein: recombinant; tags: His tag; label: 5'-32P; blunt

Does B1 bind?
Result: binds
